According to US20230374114A1 (Dana-Farber, published 2023):
Changes are numbered by the printed parent chain.

B1: RBD-R3-T1-H3 (Ab_2) (scFv, V domains shown)
VH: EVQLVQSGAEVKKPGSSVKVSCKTSGYTFTTSGISWVRQAPGQGLEWMGWISAYNGNTNYAQKLQGRVTMTTDTSTSTAYMELRSLRSDDTAVYYCARDFHLYYGMDVWGKGTLVTVSS
VL: QSALTQPPSASGSPGQSVTISCTGTSSDVGAYNYVSWYQQHPGKAPKLLIYDVTKRPPGVPDRFSGSKSGNTASLTVSGLQAEDEADYYCAVWDDGLNGRVVFGGGTKLTVL
B2: RBD-R3-E1-F5 Ab (Ab_36) (scFv, V domains shown)
VH: QVQLQQSGPGLVKPSQTLSLTCAIFGDSVTSNSAAWNWIRQSPSRGLEWLGRTYYSSKWYNDYAVSVKSRVTINADTSKNQLSLQLNSVTPEDTAVYYCARGWLRLSFDPWGQGTLVTVSS
VL: NFMLTQPHSVSESPGKTVTISCTGSSGSIASNYVQWLQQRLGSAPTTVIYEDNQRPSGVPDRFSGSIDSSSNSASLTISGLKTEDEADYYCQSYDPNNHGVVFGGGTKLTVL
B3: S1-RBD-R3-E1-E8 Ab (Ab 37) (scFv, V domains shown)
VH: QVQLVQSGAEVKKPGASVKVSCKASGYTFTSYGISWVRQAPGQGLEWMGWISTYNGNTNYAQKLQGRVTMTTDTSTSTAYMEVRSLRSDDTAVYYCARDVFGHFDYWGQGTLVTVSS
VL: NFMLTQPHSVSESPGKTVLISCTRSSGNIATNYVQWYQQRPGSAPTTVIYEDNQRPSGVPDRFSGSIDSSSNSASLTISGLKTEDEADYYCKSYDDGNHVFGGGTKLTVL
B4: S1-RBD-R3-T1-E2 (Ab7) (scFv, V domains shown)
VH: QVQLVQSGGGLVQPGRSLRLSCAASGFTFDDYAMHWVRQVPGKGLEWVSGIDWNSGVIGYADSVKGRFTISRDNAKNSLYLQMNSLRAEDTALYYCAKDAYSYGFLGAFDIWGQGTMVTVSS
VL: QPGLTQPPSVSVAPGQTARISCGGNNIGSKSVHWYQQKPGRAPVLVVYEDRGRPSGIPERFSGSNSGNTATLTVSRVEAGDEADYYCQVWDGDSDHYVFATGTKVSIL
B5: S1-RBD-R3-T1-F5 (Ab2-7) (scFv, V domains shown)
VH: QVTLKESGPTRVKPTQTLTLTCTFSGFSLSTTGVGVGWIRQPPGKALEWLALIYWNDDKRYSPSLKSRLTITKDTSKNQVVLTMTNMDPVDTATYYCARISGSGYFYPFDIWGQGTTVTVSS
VL: NFMLTQPHSVSESPGKTVTISCTRSSGSIASNYVQWYQQRPGSSPTTVIYEDNQRPSGVPDRFSGSIDSSSNSASLTISGLKAEDEADYYCQSYDSSSLWVFGGGTKLTVL
B6: RBD-R3-E1-G7 (Ab2-10) (scFv, V domains shown)
VH: EVQLVESGPGLVKPSETLSLTCTVSGGSISSYYWSWIRQPAGKGLEWIGRIYTSGSTNYNPSLKSRVTMSVDTSKNQFSLKLSSVTAADTAVYYCARDVGFGWFDRWGQGTLVTVSS
VL: B5 VL with K82T, A83T, Y94F, S97A
B7: Ab_13 (scFv, V domains shown)
VH: B5 VH with T10K, R11L, T32S, N56D, T72A, N78Y, T117M, S122A
VL: B5 VL with S44A, A83T, S98N
B8: S1-R3-T1-C4 (Ab_8) (scFv, V domains shown)
VH: QVQLVQSGAEVKKPGSSVKVSCKASGGTFSSYAISWLRQAPGQGLEWMGWINPNSGGTNYAQKFQGRVTMTRDTSISTAYMELSRLRSDDTAVYYCARGSGGYYLGWGQGTLVTVSS
VL: QPGLTQPPSVSKGLRQTATLTCTGNSNNVGNQGAAWLQQHQGHPPKLLSYMNNNRPPGISERFSASRSGNTASLTITGLQPEDEADYYCSAWDSSLSRWVFGGGTKLSVL
B9: S1-R3-T1-H7 (Ab12) (scFv, V domains shown)
VH: EVQLVESGPGVVSPSATLFLTCSVSGGSIRTHSWNWIRQPPGKPLEWIGFIHHSGATNKNPSLKSRVTISSDTSKNEFSLTLTSVTAADTAVYYCARGPGILSYWSRGTLVTVSS
VL: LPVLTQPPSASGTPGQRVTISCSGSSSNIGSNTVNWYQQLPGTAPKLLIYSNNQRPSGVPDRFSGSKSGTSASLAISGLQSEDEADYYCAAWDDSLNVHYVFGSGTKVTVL
B10: S1-RBD-R3-T1-F9 Ab (Ab_39) (scFv, V domains shown)
VH: QVTLKESGPTLVKPTQTLTLTCTLSGVSLDTIGMRVSWIRQPPGKALEWLARIDWDDDKFYSTALKTRLTISKDTSKNQVVFTMTSMDPVDTATYYCARSGLLYDLDVWGRGTLVTVSS
VL: QSVVTQPPSVSGAPGQRVTISCTGSDSDIGANFVQWYQQLPGTAPKLLIWRNTNRPSGVPDRFSASKSGTSASLAITGLQAEDEADYFCQSYDSSLSAYVFGGGTKVTVL
B11: Ab 38 (scFv, V domains shown)
VH: QVTLKESGPTLVKPTQTLTLTCTFSGFSLTTSGVSVGWIRQPPGKALEWLALIHWDDDKRYSPSLRSRLTITRDTSKNQVVLTVTDMDPADTGTYYCASFIMTVYAEYFEDWGQGTLVTVSS
VL: EIVLTQSPATLSVSPGERATLSCRASQSVSSNLAWYQQKPGQAPRLLMYDVSTRATGIPARFSGSGSGTEFSLTISSLQSEDFAVYYCQQRGAWPLTFGGGTKVEIK
B12: S1-RBD-R3-T1-D7 Ab (Ab_34) (scFv, V domains shown)
VH: QVQLVQSGVEVKKPGESLKISCKGSGYSFTSYWIGWVRQMPGKGLEWMGIIYPGDSDTRYSPSFQGQVTISADKSISTAYLQWSSLKASDTAMYYCARTTYSYGSFDYWGQGTLVTVSS
VL: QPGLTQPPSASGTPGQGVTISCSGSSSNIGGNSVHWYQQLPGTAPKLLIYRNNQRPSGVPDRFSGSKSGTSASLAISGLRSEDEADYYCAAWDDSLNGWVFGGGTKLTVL
B13: S1-RBD-R3-T1-G1 Ab (Ab_35) (scFv, V domains shown)
VH: EVQLVQSGAEVKKPGESLRISCKASGYSFTSNWIGWVRQMPGKGLEWMGSIFPGDSDTKYSPSFQGQVTISADRSISTAYLQWSGLKASDTAMYYCARESYNAYGSWGQGTLVTVSS
VL: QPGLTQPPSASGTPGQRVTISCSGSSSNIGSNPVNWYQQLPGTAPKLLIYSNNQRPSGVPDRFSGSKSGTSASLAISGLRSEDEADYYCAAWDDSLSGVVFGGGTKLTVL

Tests used:
[1] = molecular target: D614G Spike (SARS-CoV-2, UniProt P0DTC2 16-1213)
[2] = molecular target: D614G Spike (SARS-CoV2, UniProt P0DTC2 16-1213)

| Binder | Kd [1] | Kd [2] |
| --- | --- | --- |
| B1 | 167 pM |  |
| B2 |  | 7.42 pM |
| B3 |  | 8.54 pM |
| B4 | 2.74 pM |  |
| B5 | 9.93 pM |  |
| B6 | 8.87 pM |  |
| B7 | 8.1 pM |  |
| B8 | 7.3 pM |  |
| B9 | 11.2 pM |  |
| B10 |  | < 1 pM |
| B11 |  | 3.37 pM |
| B12 | 9.15 pM |  |
| B13 |  | 8.69 pM |
